Reference: patent US20030219386

Target: soluble recombinant uPAR (suPAR), expressed in Drosophila S2 cells (UniProt Q03405)
Sequence (Q03405 23-299): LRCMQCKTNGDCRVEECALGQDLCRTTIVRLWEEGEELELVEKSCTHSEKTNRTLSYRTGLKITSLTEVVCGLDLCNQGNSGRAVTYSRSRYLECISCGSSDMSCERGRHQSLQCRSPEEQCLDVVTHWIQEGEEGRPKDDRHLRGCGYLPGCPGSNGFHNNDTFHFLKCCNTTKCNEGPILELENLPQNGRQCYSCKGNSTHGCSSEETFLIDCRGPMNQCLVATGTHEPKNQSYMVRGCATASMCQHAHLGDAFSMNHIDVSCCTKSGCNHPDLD

recombinant human single chain urokinase plasminogen activator (scuPA), wild-type, aa1-411 of the mature human sequence, expressed in Drosophila S2 cells
activity of scuPA in complex with suPAR: scuPA prepared in this manner was active in complex with suPAR as well as when activated by plasmin
